How the values were obtained:
N. crassa XR = target: T1, N. crassa XR (Neurospora crassa, UniProt Q7SD67); test: Kinetic analysis of N. crassa XR: initial rates, NAD(P)H consumption at 340 nm, with cofactors and sugar substrates; format: biochemical; conditions: for acts as substrate for N. crassa XR: NADPH as the cofactor; for fold difference in catalytic efficiency (kcat/KM) between NADPH and NADH: NADPH favoured over NADH; for kcat: xylose reduction with the named coenzyme, 25° C., 50 mM MOPS pH 6.3
T1 sequence (Q7SD67 1-322): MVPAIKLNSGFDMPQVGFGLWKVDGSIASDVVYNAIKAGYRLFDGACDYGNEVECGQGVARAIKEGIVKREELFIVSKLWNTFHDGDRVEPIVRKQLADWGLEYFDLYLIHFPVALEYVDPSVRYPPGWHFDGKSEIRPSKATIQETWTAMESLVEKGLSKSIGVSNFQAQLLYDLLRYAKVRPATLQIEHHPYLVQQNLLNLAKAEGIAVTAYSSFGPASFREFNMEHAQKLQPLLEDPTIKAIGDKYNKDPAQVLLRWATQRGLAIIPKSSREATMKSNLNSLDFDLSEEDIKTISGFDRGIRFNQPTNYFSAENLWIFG
Method: Michaelis-Menten constants (KM) were determined for both cofactors as well as for xylose with either cofactor. The maximum turnover number (kcat) was also determined with both cofactors. […] Xylose concentrations were varied from 10 to 250 mM while either cofactor concentration was held at 160 μM.
Analysis of substrate specificity.
Kinetic Analysis. […] All initial rate assays were carried out at 25° C. in 50 mM MOPS pH 6.3 using a Varian Cary 100 Bio UV-visible spectrophotometer unless otherwise noted. The reaction was initiated by addition of 0.1-1 μg of XR. […] The data were then converted to turnover number and fitted by non-linear regression analysis to the Michaelis-Menten equation using Origin 5.0. […] All assays were performed in duplicate or triplicate at least two times. The kinetic data presented represent averages of statistically relevant measurements and with their associated standard deviations.

[1] = substrate: OC1OC[C@@H](O)[C@@H](O)[C@H]1O; test: as above; format: biochemical, Neurospora crassa; conditions: other: KM of the sugar substrate, NADPH as cofactor, 25° C., 50 mM MOPS pH 6.3
[2] = substrate: OC1OC[C@H](O)[C@H](O)[C@H]1O; test: as above; format: biochemical, Neurospora crassa; conditions: other: KM of the sugar substrate, NADPH as cofactor, 25° C., 50 mM MOPS pH 6.3
[3] = substrate: OC1OC[C@@H](O)[C@H](O)[C@H]1O; test: as above; format: biochemical, Neurospora crassa; conditions: other: KM of the sugar substrate, NADPH as cofactor, 25° C., 50 mM MOPS pH 6.3
[4] = literature, cited from earlier work; for kcat / Km: with NADPH as cofactor; for Km: read-out: KM, Xylose

## OC[C@H]1O[C@@](CO)(O[C@H]2O[C@H](CO)[C@@H](O)[C@H](O)[C@H]2O)[C@@H](O)[C@@H]1O [sucrose]
N. crassa XR
  acts as substrate for N. crassa XR: did not act as substrates

## O=C[C@@H](O)[C@H](O)[C@H](O)CO [D-arabinose]
N. crassa XR
  acts as substrate for N. crassa XR: did not act as substrates
N. crassa XR; listed as D-arabinos
  acts as substrate for N. crassa XR: activity

## Nicotinamide adenine dinucleotide phosphate reduced [NADPH]
N. crassa XR
  fold difference in catalytic efficiency (kcat/KM) between NADPH and NADH: 100 fold
  kcat: 60 ± 1.67 s⁻¹

## Nicotinamide adenine dinucleotide reduced [NADH]
N. crassa XR
  fold difference in catalytic efficiency (kcat/KM) between NADPH and NADH: 100 fold
  kcat: 5.17 ± 0.167 s⁻¹

## O=C(CO)[C@@H](O)[C@H](O)[C@H](O)CO [D-fructose]
N. crassa XR
  acts as substrate for N. crassa XR: did not act as substrates

B1: N. crassa XR (Neurospora crassa OR74A) (protein)
chain: MVPAIKLNSGFDMPQVGFGLWKVDGSIASDVVYNAIKAGYRLFDGACDYGNEVECGQGVARAIKEGIVKREELFIVSKLWNTFHDGDRVEPIVRKQLADWGLEYFDLYLIHFPVALEYVDPSVRYPPGWHFDGKSEIRPSKATIQETWTAMESLVEKGLSKSIGVSNFQAQLLYDLLRYAKVRPATLQIEHHPYLVQQNLLNLAKAEGIAVTAYSSFGPASFREFNMEHAQKLQPLLEDPTIKAIGDKYNKDPAQVLLRWATQRGLAIIPKSSREATMKSNLNSLDFDLSEEDIKTISGFDRGIRFNQPTNYFSAENLWIFG
[1]
  Km: 70 ± 10 mM
  kcat/Km: 750 M⁻¹ s⁻¹
[2]
  Km: 40 ± 10 mM
  kcat: 30 ± 1.67 s⁻¹
  kcat/Km: 750 M⁻¹ s⁻¹
[3]
  Km: 34 mM
  kcat: 60 ± 3.33 s⁻¹
  kcat/Km: 1830 M⁻¹ s⁻¹

B2: C. tenuis: xylose reductase from Candida tenuis, literature (protein, UniProt O74237 1-322, looked up)
NAD(P)H-dependent D-xylose …: MSASIPDIKLSSGHLMPSIGFGCWKLANATAGEQVYQAIKAGYRLFDGAEDYGNEKEVGDGVKRAIDEGLVKREEIFLTSKLWNNYHDPKNVETALNKTLADLKVDYVDLFLIHFPIAFKFVPIEEKYPPGFYCGDGNNFVYEDVPILETWKALEKLVAAGKIKSIGVSNFPGALLLDLLRGATIKPAVLQVEHHPYLQQPKLIEFAQKAGVTITAYSSFGPQSFVEMNQGRALNTPTLFAHDTIKAIAAKYNKTPAEVLLRWAAQRGIAVIPKSNLPERLVQNRSFNTFDLTKEDFEEIAKLDIGLRFNDPWDWDNIPIFV
[4]; NADH as cofactor
  NADH-dependent XR kcat: 18.33 s⁻¹
[4]
  Optimal pH: 6.0
  kcat: 21.67 s⁻¹
  Km: 72 mM

B3: P. stipitus: NADPH-dependent xylose reductase from P. stipitus, literature (protein, UniProt P31867 1-318, looked up)
NAD(P)H-dependent D-xylose …: MPSIKLNSGYDMPAVGFGCWKVDVDTCSEQIYRAIKTGYRLFDGAEDYANEKLVGAGVKKAIDEGIVKREDLFLTSKLWNNYHHPDNVEKALNRTLSDLQVDYVDLFLIHFPVTFKFVPLEEKYPPGFYCGKGDNFDYEDVPILETWKALEKLVKAGKIRSIGVSNFPGALLLDLLRGATIKPSVLQVEHHPYLQQPRLIEFAQSRGIAVTAYSSFGPQSFVELNQGRALNTSPLFENETIKAIAAKHGKSPAQVLLRWSSQRGIAIIPKSNTVPRLLENKDVNSFDLDEQDFADIAKLDINLRFNDPWDWDKIPIFV
[4]
  Optimal pH: 6.0
  kcat: 25 s⁻¹
  Km: 42 mM

B4: S. cerevisiae: xylose reductase from S. cerevisiae, literature (protein, UniProt P38715 2-327, looked up)
NADPH-dependent aldose …: SSLVTLNNGLKMPLVGLGCWKIDKKVCANQIYEAIKLGYRLFDGACDYGNEKEVGEGIRKAISEGLVSRKDIFVVSKLWNNFHHPDHVKLALKKTLSDMGLDYLDLYYIHFPIAFKYVPFEEKYPPGFYTGADDEKKGHITEAHVPIIDTYRALEECVDEGLIKSIGVSNFQGSLIQDLLRGCRIKPVALQIEHHPYLTQEHLVEFCKLHDIQVVAYSSFGPQSFIEMDLQLAKTTPTLFENDVIKKVSQNHPGSTTSQVLLRWATQRGIAVIPKSSKKERLLGNLEIEKKFTLTEQELKDISALNANIRFNDPWTWLDGKFPTFA
[4]
  kcat: 14.3 s⁻¹
  Km: 13.6 mM

Source: patent US7592163B2 (The Board of Trustees of the University of Illinois, priority 2004, dated 2009)
